Reference: patent US20250332297A1, “DLL3-SPECIFIC BINDING CONSTRUCTS AND THEIR USE IN RADIOTHERAPY” (MOLECULAR PARTNERS AG, priority 2024, published 2025)

Target: T1, human DLL3 and human serum albumin (Homo sapiens, UniProt P02768+Q9NYJ7)
T1 construct: Biotinylated recombinant human DLL3-ECD was immobilized
Assay: SPR simultaneous binding to DLL3 and serum albumin
Conditions: immobilized hDLL3-ECD, 150 nM conjugate then 1000 nM HSA
Method: Studies were performed to determine whether a two domain (2D) ankyrin repeat protein conjugate, as described herein, can bind simultaneously to DLL3 and serum albumin. The specific conjugate tested was MAM279 (SEQ ID NO: 11), with a Glycine-Serine (GS) at its N-terminal end and a tag (SEQ ID NO: 10) at its C-terminal end (resulting in GS-MAM279-tag (SEQ ID NO: 15)), conjugated to the chelator DOTAM as described in Example 3.
An SPR assay was used to assess the concurrent binding of DARPin (MAM279) conjugate to both human DLL3 and human serum albumin (HSA). […] A streptavidin SAHC200M (Xantec) sensor chip was conditioned according to the manufacturer's protocol. Biotinylated recombinant human DLL3-ECD was immobilized to a coating density of 1350-1470 RU. A single injection of 150 nM DARPin conjugate was performed, with an association time of 240 s using a constant flow of 100 μl/min. After a lag time of ˜300 seconds, HSA was injected at 1000 nM with an association time of 240 seconds and a dissociation time of 900 seconds using a constant flow of 100 μl/min. Control lanes were used where only one of the analytes or only PBST was injected. The signal was double referenced (interspot and buffer injection). The figure (FIG. 17) was prepared with GraphPad Prism 10.2.3.

B1: MAM279-DOTAM: GS-MAM279-tag (SEQ ID NO: 15) conjugated to the chelator DOTAM via C-terminal tag and maleimide connector, no radionuclide (conjugate)
chain: GSDLGKKLLEAARAGQDDEVRELLKAGADVNAKDYFSHTPLHLAARNGHLKIVEVLLKAGADVNAKDFAGKTPLHLAADAGHLEIVEVLLKAGADVNAQDIFGKTPADIAADAGHEDIAEVLQKAAGSPTPTPTTPTPTPTTPTPTPTGSDLGKKLLAAAAQGQDDEVRELLKAGANVNAKDLFGYTPLHLAAWRGHLEIVEVLLKAGADVNAKDAAGETPLHLAAWFGHLEIVEVLLKAGADVNAQDLQGKTPADLAAKEGHEDIAEVLQKAAGSGSC
modifications: DOTAM chelator via maleimide on C-terminal tag; Ankyrin repeat protein with tag (GS-MAM279-tag)
  simultaneous binding to DLL3 and serum albumin: can bind simultaneously to human DLL3 and human serum albumin
